No end group written: not given here.
Molecular target: His6-E6AP ligase (full-length, baculovirus-expressed) (human) (UniProt Q05086)
Assay: inhibition of His6-E6AP-catalyzed 125I-polyubiquitin chain formation, semi-reciprocal plot; non-competitive versus UbcH7

B1: N-acetyl-… peptide (peptide)
peptide: Ac-NRIRMYSERRITVLYSL
Ki: 22 µM

Reference: patent US20150210998A1
